Assay results: US20170321196A1, “ANALYTICAL AND DIAGNOSTIC METHODS UTILIZING SHIGELLA FLEXNERI APYRASE” (priority 2014, published 2017)
Values joined by “and” are separate entries in the source; they are usually repeats but may differ in a detail not shown here. Equal entries are not always repeated. “Also recorded” adds a separate entry of the source.

Key:
rSFA = assay: Inhibitor development: inhibition of rSFA; type: biochemical, Shigella flexneri
Method: After checking the rSFA inhibitory activity in buffer, it was verified with urine, where 10 μl were added with 80 μl of cell lysate reagent and 10 μmol/L of ATP. About 100 mM of MgSO4 and 1 mM of Na3VO4 were added in separate tubes and incubated for 10 min before measuring the light emission using firefly luciferase.

firefly luciferase = molecular target: T1, firefly luciferase (Photinus pyralis, UniProt P08659); assay: Inhibitor development: effect on luciferase; type: biochemical
T1 construct: purchased BioThema AB, Sweden ATP Kit SL
T1 sequence (P08659 whole entry): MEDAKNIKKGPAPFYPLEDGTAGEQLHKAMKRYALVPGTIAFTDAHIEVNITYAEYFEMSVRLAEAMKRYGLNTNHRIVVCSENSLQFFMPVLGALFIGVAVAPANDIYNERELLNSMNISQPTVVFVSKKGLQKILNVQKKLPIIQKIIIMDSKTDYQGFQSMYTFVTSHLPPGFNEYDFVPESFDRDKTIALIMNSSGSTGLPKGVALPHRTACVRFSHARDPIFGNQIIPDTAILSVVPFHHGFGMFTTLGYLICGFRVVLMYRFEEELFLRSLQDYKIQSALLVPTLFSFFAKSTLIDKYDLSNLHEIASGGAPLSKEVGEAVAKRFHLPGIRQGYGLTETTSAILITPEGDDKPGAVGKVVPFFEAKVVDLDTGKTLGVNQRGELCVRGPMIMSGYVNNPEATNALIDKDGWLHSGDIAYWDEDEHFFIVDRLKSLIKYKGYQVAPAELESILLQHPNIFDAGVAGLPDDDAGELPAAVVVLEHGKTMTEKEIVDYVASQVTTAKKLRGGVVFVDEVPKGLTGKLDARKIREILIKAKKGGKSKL
Method: After checking the rSFA inhibitory activity in buffer, it was verified with urine, where 10 μl were added with 80 μl of cell lysate reagent and 10 μmol/L of ATP. […]

[1] = Elimination of extracellular ATP in serum, bioluminescent assay; type: biochemical; parameters: ATP depletion rate: unit not given beside the values; conditions: for time after which no further ATP elimination: 10% serum, FIG. 8; for time to complete hydrolysis of ATP and its analogues: 100% crude serum, FIG. 6A
Method: (§1) Cuvettes contained 100 μL sample in a total volume of 1 mL containing ATP Reagent SL (BioThema AB, Sweden) in 0.07 mol/L Tris- EDTA Buffer and the reaction was started by injection of 10 μL 10 μmol/L ATP Standard. The initial apyrase activity was determined as described by Lundin and coworkers (Analytical Biochemistry 75, 611-620 (1976) and Methods in Enzymology vol 305, 346-370 (2000)) with some modifications. Bioluminescence was measured at every 10 s during 1 min, in the fully automatic 1251 Luminometer (LKB-Wallac, Turku, Finland). To this, 10 μl of 10 μmol/L ATP was added to determine the background ground luminescence. The temperature control was set to 25° C. and bioluminescence was measured from several cuvettes in parallel during 30 or 60 minutes and compared to residual ATP after various incubation times using rSFA and STA. This was repeated with rSFA and STA and a graph was plotted by keeping the ATP-degradation rate as internal control to determine the ATP-degradation efficiency of both of the enzyme sources.
(§2) Light emission from the firefly-luciferase reaction was measured at 25° C. in a 1251 Luminometer (LKB-Wallac; Finland) using the ATP Kit SL (BioThema AB, Sweden) according to the manufacture's instruction (in buffer experiment) or adding concentrated luciferase (in serum/urine experiments). Initially luciferase reaction follows first-order kinetics and the ATP Reagent SL in this kit produces light intensity proportional to the ATP concentration. A plot of the natural logarithm of the light intensity versus time yields a straight line with the slope representing the rate constant of the reaction. Starting concentration of STA, A6535, A6237 (Sigma-Aldrich) was adjusted similar to rSFA. BL-reaction was started automatically upon addition of 0.2 μmol/L ATP, and the light intensity was measured every 10 second for 10 minutes (in buffer experiment) or 30 minutes (in serum and urine experiments), in the reaction volume of 0.5 mL.

[2] = Buffer optimization: rSFA activity after storage, bioluminescent ATP-elimination assay; type: physicochemical; conditions: stored in Buffer 3 about 10 months at +4° C.; compared with Buffer 1 and 2
Method: Equal concentration of rSFA was stored in Buffer 1(20 mM Tris, 1 mM EDTA, 1% BSA, 25 mM MgSO4, pH 7.5), Buffer 2 (20 mM Tris, 25 mM MgSO4, 2.5% BSA, pH 7.5) and Buffer 3 (20 mM HEPES, 500 mM NaCl, 25 mM MgSO4, pH 7.5) for about 10 months at 4° C. Bioluminescence activity assay was performed as described below to detect the activity of rSFA after storage.

[3] = HPLC analysis of nucleotide degradation: ATP; type: biochemical; conditions: for time to complete conversion of ATP: STA to ADP and AMP, rSFA to AMP
Method: (§3) To compare rSFA activity on nucleotides to that of STA, ATP, dATP, dTTP, dGTP and dCTP were incubated with the enzymes (same initial activity) for 5 min and 35 min and the resulting products were detected using high performance liquid chromatography (HPLC).
(§4) The dNTP Standard preparation was prepared to contain final concentration of 0.1 mM […]. Nucleosides ATP/dATP/dCTP/dGTP/dTTP were suspended in Tris-EDTA buffer and diluted 10 times with the mobile phase (70% acetonitrile, 30% ammonium acetate pH 5.35). The above-prepared nucleosides were individually incubated with equal amounts of rSFA and STA for 35 min at pH 7.75 and 5 μl of the mixture was injected into HPLC instrument (SeQuant ZIC®-pHILIC column, Merck Millipore) at a flow rate of 0.7 mL/min using a pump (Jasco PU-2089 Plus). Peaks were detected at 254 nm by UV-2075 Plus detector and the chromatographic separation was achieved using isocratic elution. Analysis was performed using Chrompass software, where each nucleotide/nucleoside was identified by comparison with retention time of the respective standards.

[4] = ATP degradation by apyrase in buffer, firefly luciferase bioluminescent assay; type: biochemical; conditions: for time to eliminate ATP: enzymes diluted 10× in Tris-EDTA Buffer; for ATP depletion rate: No serum (Negative control)
Method: as §1, §2

[5] = ATP elimination in urine, bioluminescent assay; type: biochemical; conditions: for time to complete ATP elimination: after 4 subsequent injections of 10 μL 10 μmol/L ATP
Method: as §2

[6] = Hydrolysis of ADP and ATP/ADP mixture in urine; type: biochemical; conditions: 10 μmol/L, FIG. 10
Method: as §2, with “BL-reaction was started automatically upon addition of 0.2 μmol/L ATP, and the light intensity was measured every 10 second for 10 minutes (in buffer experiment) or 30 minutes (in serum and urine experiments), in the reaction volume of 0.5 mL.” left out

[7] = HPLC analysis of nucleotide degradation: dTTP; type: biochemical; conditions: STA to TDP and TMP, rSFA to TMP
Method: as §3, §4

[8] = HPLC analysis of nucleotide degradation: dATP; type: biochemical
Method: as §3, §4

[9] = HPLC analysis of nucleotide degradation: dCTP; type: biochemical
Method: as §3, §4

[10] = ATP degradation by apyrase in buffer, firefly luciferase bioluminescent assay; type: biochemical
[11] = SFA stability to freeze-thaw and refrigerator storage; type: physicochemical; conditions: crude form, without addition of stabilizers
Method: The rSFA samples were kept at 4° C., then frozen and freeze-thawed to check its stability. An effort was made to see if the rSFA could be used to prepare a reagent for the depletion of extraneous ATP in biological samples.

[12] = SFA activity across pH and in EDTA; type: biochemical
[13] = Undiluted serum (100% crude serum)

[O]=[V]([O-])([O-])[O-] [ortho-vanadate]
inhibition of rSFA activity (rSFA; 1 mM ortho-vanadate (Na3VO4)): completely inhibited | effect on luciferase activity (firefly luciferase; 1 mM ortho-vanadate): did not affect luciferase at all

O=S(=O)([O-])[O-].[Mg+2] [MgSO4]
inhibition of rSFA activity (rSFA; 100 mM MgSO4): showed inhibitory action | inhibition of rSFA activity (rSFA; magnesium at 50 mM): completely inhibit | effect on luciferase activity (firefly luciferase; 100 mM MgSO4): affected the activity of luciferase | effect on luciferase activity (firefly luciferase; magnesium at 50 mM): decreased the activity of luciferase

B1: rSFA: Recombinant Shigella flexneri apyrase with 6-His tag, amino-acid sequence SEQ ID NO: 4, expressed in E. coli BL21-A1 (protein, listed as Shigella flexneri)
chain: DIHMKTKNFLLFCIATNMIFIPSANALKAEGFLTQQTSPDSLSILPPPPAENSVVFQADKAHYEFGRSLRDANRVRLASEDAYYENFGLAFSDAYGMDISRENTPILYQLLTQVLQDSHDYAVRNAKEYYKRVRPFVIYKDATCTPDKDEKMAITGSYPSGHASFGWAVALILAEINPQRKAEILRRGYEFGESRVICGAHWQSDVEAGRLMGASVVAVLHNTPEFTKSLSEAKKEFEELNTPTNELTPHHHHHHRTMF
modifications: 6-His tag
ATP depletion rate ([1]; 10% Diluted serum): 1.774 | time after which no further ATP elimination [1]: > 30 min | time to complete hydrolysis of ATP and its analogues [1]: ~17 min | ATP depletion rate [1, 13]: 1.816 | activity after storage [2]: particularly good activity; also recorded: very good activity | time to complete conversion of ATP [3]: less than 5 min | rate constant of ATP elimination ([4]; FIG. 4): 3.87 min⁻¹ | time to eliminate ATP ([4]; FIG. 4): ~10 min and ~15 min | ATP depletion rate [4]: 3.98 | time after which saturated and ineffective in further reducing the ATP concentration ([4]; in buffer, FIG. 7): > 300 s | time to complete ATP elimination [5]: less than 3 min | change of activity with ADP or mixture of ADP and ATP [6]: no substantial difference; also recorded: not affected | time to conversion of dTTP [7]: less than 5 min | time to full conversion of dATP into dAMP [8]: less than 5 min | time to complete conversion of dCTP into CMP [9]: less than 5 min

B2: STA: Solanum tuberosum apyrase, commercially available potato apyrase from Sigma-Aldrich, SEQ ID NO: 9 (protein, listed as Solanum tuberosum)
chain: MLNQNSHFIFIILAIFLVLPLSLLSKNVNAQIPLRRHLLSHESEHYAVIFDAGSTGSRVHVFRFDEKLGLLPIGNNIEYFMATEPGLSSYAEDPKAAANSLEPLLDGAEGVVPQELQSETPLELGATAGLRMLKGDAAEKILQAVRNLVKNQSTFHSKDQWVTILDGTQEGSYMWAAINYLLGNLGKDYKSTTATIDLGGGSVQMAYAISNEQFAKAPQNEDGEPYVQQKHLMSKDYNLYVHSYLNYGQLAGRAEIFKASRNESNPCALEGCDGYYSYGGVDYKVKAPKKGSSWKRCRRLTRHALKINAKCNIEECTFNGVWNGGGGDGQKNIHASSFFYDIGAQVGIVDTKFPSALAKPIQYLNAAKVACQTNVADIKSIFPKTQDRNIPYLCMDLIYEYTLLVDGFGLNPHKEITVIHDVQYKNYLVGAAWPLGCAIDLVSSTTNKIRVASS
ATP depletion rate ([1]; 10% Diluted serum): 2.429 | time after which no further ATP elimination [1]: 6 min | time to complete hydrolysis of ATP and its analogues [1]: ~45 min | ATP depletion rate [1, 13]: 0.5536 | cleavage of ATP to ADP and AMP ([3]; 5 min incubation): only partially cleaved | time to complete conversion of ATP [3]: 35 min | Initial activity [4]: 4.12 Units/mg protein | time to eliminate ATP ([4]; FIG. 4): > 60 min | ATP depletion rate [4]: 3.52 | Remaining ATP activity after 1 min ([4]; after 1 min): 1.1876% | Remaining ATP activity after 17 min ([4]; after 17 min): 0.0367% | amount of ATP remaining lower in STA samples compared to rSFA (factor) ([4]; after one minute): ~2 | Remaining ATP activity after 91 min [10]: 0.0228% | time after which rate of action was hindered ([5]; FIG. 9): 3 min | time to complete ATP elimination [5]: > 20 min | change of activity with ADP or mixture of ADP and ATP [6]: considerably decreased | time to conversion of dTTP [7]: 35 min | dATP remaining ([8]; after 35 min of incubation): more than 25% | portion of dCTP converted into CDP and CMP ([9]; after 35 min): only half

B3: SFA: Apyrase derived from Shigella flexneri, recombinant or non-recombinant; native sequence SEQ ID NO: 10 (protein, listed as Shigella flexneri)
chain: MKTKNFLLFCIATNMIFIPSANALKAEGFLTQQTSPDSLSILPPPPAENSVVFQADKAHYEFGRSLRDANRVRLASEDAYYENFGLAFSDAYGMDISRENTPILYQLLTQVLQDSHDYAVRNAKEYYKRVRPFVIYKDATCTPDKDEKMAITGSYPSGHASFGWAVALILAEINPQRKAEILRRGYEFGESRVICGAHWQSDVEAGRLMGASVVAVLHNTPEFTKSLSEAKKEFEELNTPTNELTP
stability [11]: tolerates freeze-thaw-cycles and storage in solution at refrigerator temperatures | activity in high concentrations of EDTA [12]: remains to be active | pH range of very good activity [12]: 7.0-7.5
